Test results taken from patent publication US20240343803A1 (SHANDONG SIMCERE BIOPHARMACEUTICAL, published 2024).
Positions count from the first letter of the chain named. Each block holds one binder with its values, some of them ahead of it.

Tests used:
[1] = molecular target: T1, cynomolgus monkey PVRIG (Novoprotein, Cat NO. C09B) (cynomolgus monkey, UniProt A0A2K5WVV8 41-171); test: ELISA, coated cynomolgus monkey PVRIG
T1 construct: Bought reagent; also called cynomolgus monkey PVRIG protein
T1 sequence: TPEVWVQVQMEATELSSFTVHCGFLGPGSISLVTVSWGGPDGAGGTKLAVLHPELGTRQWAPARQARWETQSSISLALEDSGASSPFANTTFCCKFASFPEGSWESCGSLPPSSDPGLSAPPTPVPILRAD
Experimental: (§1) The ELISA plate was pre-coated with 100 μL/well of 0.5 μg/mL human PVRIG-his (AcroBiosystems, Cat NO. PVG-H52H4) or cynomolgus monkey PVRIG (Novoprotein, Cat NO. C09B). […] A HRP substrate, TMB (Thermo, Cat NO. 34029) was added into wells after washing the plate again for color development. After adding a termination solution to terminate the reaction, the absorbance value was read by a microplate reader (MD i3×). An antibody binding curve was drawn with concentration of antibodies as the abscissa and the corresponding OD value as the ordinate. The EC50 value was calculated by using a Four Parameter Logistic Fit (GraphPadPrism9). The smaller the EC50 value, the stronger the ability of the antibodies binds to human or cynomolgus monkey PVRIG. The positive control antibodies are COM701-hIgG1 (Patent No.:US20180244774A1), COM701-hIgG4 (patent No.: US20180244774A1) and SRF813-hIgG1 (Patent No.:US20200040081A1); and the negative control antibodies are anti-HA HcAb-hIgG1 (Chengdu NB Biolab, Cat NO. NBR022), anti-CD38 HcAb-hIgG1 (in-house) and anti-Fluorescein-hIgG1 (in house).

[2] = molecular target: T2, human PVRIG-his (AcroBiosystems, Cat NO. PVG-H52H4) (human, UniProt Q6DKI7 41-171, limits assumed); test: ELISA, coated human PVRIG-his
T2 construct: Bought reagent; also called human PVRIG protein
T2 sequence (looked up): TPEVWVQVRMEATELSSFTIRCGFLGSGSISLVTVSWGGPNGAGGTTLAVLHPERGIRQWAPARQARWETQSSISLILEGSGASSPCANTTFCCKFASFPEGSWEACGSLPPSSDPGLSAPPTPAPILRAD
Experimental: as §1

[3] = molecular target: T3, human PVRIG on FlpinCHO-PVRIG cells (human, UniProt Q6DKI7 41-326); test: FACS, FlpinCHO-PVRIG cells; AUC of MFI curve relative to COM701-hIgG1
T3 construct: whole, on cells
T3 sequence (looked up): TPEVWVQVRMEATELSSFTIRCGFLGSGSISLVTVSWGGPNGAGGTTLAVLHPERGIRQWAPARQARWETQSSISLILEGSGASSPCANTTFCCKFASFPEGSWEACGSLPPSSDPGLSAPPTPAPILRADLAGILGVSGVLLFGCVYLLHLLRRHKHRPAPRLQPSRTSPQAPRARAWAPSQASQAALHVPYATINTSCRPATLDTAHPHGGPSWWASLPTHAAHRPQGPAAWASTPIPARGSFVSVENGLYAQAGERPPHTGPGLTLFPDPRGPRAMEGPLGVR
Experimental: (§2) The Ham's F12 (Gibico, 21127-022) complete medium containing 10% FBS was then added to terminate the digestion and acquire cell suspension. After counting with a cell counter (Beckman Coulter, Vi-CELL), an appropriate amount of cell suspension was centrifuged at 350×g to remove the supernatant, washed twice with PBS, stained with Zombie violet (Biolegend, 423114) and incubated at room temperature for 20 minutes. After incubation, the cells were added with staining buffer (2% FBS+PBS) to stop staining, centrifuged at 350×g to remove the supernatant, washed twice and resuspended with staining buffer to a density of 2×10⁶ cells/mL. The cells were plated into a 96-well plate (50 μL of cell suspension per well) for further use. The antibodies were diluted from the highest concentration of 46 nM (two-fold concentration) with staining buffer by 3.3-fold serial dilution. The diluted antibodies were added to the well containing 50 μL of cell suspension. The plate was placed on a microplate shaker at 400 rpm for 1 minute to fully mix the antibodies and cells, and then incubated at 4° C. for 30 minutes. After the incubation, the cells were washed twice with staining buffer (200 μL per well) and centrifuged at 350×g for 5 minutes to discard the supernatant. The PE goat anti-human IgG Fc antibody (ebioscience, 12-4998-82) was diluted 250 times with staining buffer, added into the washed wells (100 μL per well), mixed well, and stained at 4° C. for 30 minutes. After staining, the cells were washed twice with staining buffer, finally resuspended with 200 μL staining buffer and analyzed by flow cytometry (BD, Canto II). The stronger the signal, the stronger the ability of the antibodies binds to PVRIG. An antibody binding curve was drawn with concentration of antibodies as the abscissa and the corresponding Mean Fluorescence Intensity (MFI) as the ordinate. The AUC value of the curve was calculated by using a Four Parameter Logistic Fit (GraphPadPrism9). The stronger the AUC value, the stronger the ability of the antibodies binds to FlpinCHO-PVRIG and FlpinCHO-cyno PVRIG. […] The binding activity of the antibodies was normalized to the positive control COM701-hIgG1 and SRF813-hIgG1.

[4] = molecular target: T4, cynomolgus monkey PVRIG on FlpinCHO-cyno PVRIG cells (cynomolgus monkey, UniProt A0A2K5WVV8 41-322); test: FACS, FlpinCHO-cyno PVRIG cells; AUC of MFI curve relative to COM701-hIgG1
T4 construct: whole, on cells
T4 sequence: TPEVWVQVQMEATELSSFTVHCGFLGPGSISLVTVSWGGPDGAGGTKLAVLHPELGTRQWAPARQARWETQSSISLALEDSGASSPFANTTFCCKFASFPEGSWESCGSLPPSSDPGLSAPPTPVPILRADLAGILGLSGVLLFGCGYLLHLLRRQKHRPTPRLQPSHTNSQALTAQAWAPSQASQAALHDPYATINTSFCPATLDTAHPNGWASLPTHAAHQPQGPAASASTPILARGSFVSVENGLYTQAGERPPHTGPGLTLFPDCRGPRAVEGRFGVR
Experimental: as §2

[5] = molecular target: T3, human PVRIG on FlpinCHO-PVRIG cells; test: FACS, FlpinCHO-PVRIG cells; AUC of MFI curve relative to SRF813-hIgG1
Experimental: as §2

[6] = molecular target: T4, cynomolgus monkey PVRIG on …; test: FACS, FlpinCHO-cyno PVRIG cells; AUC of MFI curve relative to SRF813-hIgG1
Experimental: as §2

[7] = molecular target: T5, Fusion protein of extracellular domain of human TIGIT and His-tag (human TIGIT ECD-his) (human); test: BIAcore
T5 chain: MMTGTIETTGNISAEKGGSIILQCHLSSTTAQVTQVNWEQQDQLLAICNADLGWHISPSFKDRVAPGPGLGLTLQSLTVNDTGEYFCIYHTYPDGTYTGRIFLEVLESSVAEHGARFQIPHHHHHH

[8] = molecular target: T6, Fusion protein of extracellular domain of human TIGIT and human IgG1 Fc fragment (human TIGIT ECD-hFc) (human); test: blocking of TIGIT ECD-hFc binding to CHO-K1 CD155 cells
T6 construct: The entry includes the signal peptide (limits not recoverable) and the human IgG1 Fc
Method in brief: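 Inhibition was expressed as IC50 values derived from the inhibition curves of a cell-based ELISA. CHO-K1 CD155 cells were cultured overnight, fixed, and blocked with 5% skim milk-PBS. Antibodies were first premixed for 0.5 h with human TIGIT ECD-hFc at a working concentration of 30 ng/mL, and the mixture was then added to the cells for 1.5-2 h at 37° C. Bound TIGIT was detected with HRP secondary antibody (1:5000, 37° C, 1 h) and TMB, and read as OD450 nm.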

[9] = molecular target: T7, Fusion protein of extracellular domain of human TIGIT and mouse IgG2a Fc fragment (human TIGIT ECD-mFc) (human); test: ELISA, human TIGIT ECD-mFc
T7 construct: The entry includes the signal peptide (limits not recoverable) and the mouse IgG2a Fc
T7 chain: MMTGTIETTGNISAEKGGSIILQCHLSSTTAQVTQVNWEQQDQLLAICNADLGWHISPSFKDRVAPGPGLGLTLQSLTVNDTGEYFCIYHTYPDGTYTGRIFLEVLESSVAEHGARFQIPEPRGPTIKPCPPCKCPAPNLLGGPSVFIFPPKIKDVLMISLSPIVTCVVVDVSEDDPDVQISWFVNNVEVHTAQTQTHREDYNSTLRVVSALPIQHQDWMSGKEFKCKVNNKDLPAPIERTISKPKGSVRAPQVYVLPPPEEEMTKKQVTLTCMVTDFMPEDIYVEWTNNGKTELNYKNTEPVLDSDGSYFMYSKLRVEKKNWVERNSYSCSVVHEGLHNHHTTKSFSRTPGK
Method in brief: (§3)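 Antibodies diluted to 13 nM in 1% BSA, then 3-fold serial dilution for 12 concentrations, incubated with milk-blocked plates at 37° C for 1.5-2 h. Bound antibody detected with HRP-labelled secondary antibody (1:5000, 37° C, 1 h) and TMB, stopped with 1M HCl; OD450 nm read.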

[10] = molecular target: T8, Full-length human TIGIT on CHO-K1 cells (CHO-K1 human TIGIT) (human, UniProt Q495A1 22-244); test: cell binding, CHO-K1 human TIGIT high expression strain
T8 construct: NCBI XP_024309156.1; the entry includes the signal peptide (limits not recoverable); The strain (high, medium, low) is named under assay; also called high expression strain 1D2; medium expression strain 2D10
T8 sequence: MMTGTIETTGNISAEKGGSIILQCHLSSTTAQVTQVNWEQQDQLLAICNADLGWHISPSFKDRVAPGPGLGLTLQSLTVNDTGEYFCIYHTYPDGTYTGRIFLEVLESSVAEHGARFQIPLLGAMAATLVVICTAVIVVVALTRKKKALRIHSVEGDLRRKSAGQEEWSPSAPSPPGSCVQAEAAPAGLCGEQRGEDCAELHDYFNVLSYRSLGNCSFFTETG
Method in brief: (§4)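 Binding was measured by flow cytometry after a 60-minute, 4° C incubation of the antibodies with 2×10⁵ CHO-K1 cells displaying full-length human or cynomolgus monkey TIGIT. Antibody titration: 12 points, threefold serial dilution from 80 nM, in 1% BSA-PBS.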

[11] = molecular target: T9, Fusion protein of extracellular domain of cynomolgus monkey TIGIT and mouse IgG2a Fc fragment (cynomolgus … (cynomolgus monkey)); test: ELISA, cynomolgus monkey TIGIT ECD-mFc
T9 construct: The entry includes the signal peptide (limits not recoverable) and the mouse IgG2a Fc
Method in brief: as §3

[12] = molecular target: T5, Fusion protein of extracellular domain …; test: BIAcore; KD ratio to TIGIT-CHI-070
[13] = molecular target: T10, Full-length cynomolgus monkey TIGIT on CHO-K1 cells (CHO-K1 cynomolgus monkey TIGIT) (cynomolgus monkey); test: cell binding, CHO-K1 cynomolgus monkey TIGIT
T10 construct: NCBI XP_015300911.1
Method in brief: as §4

T10 sequence (chain, as listed by the source limits assumed): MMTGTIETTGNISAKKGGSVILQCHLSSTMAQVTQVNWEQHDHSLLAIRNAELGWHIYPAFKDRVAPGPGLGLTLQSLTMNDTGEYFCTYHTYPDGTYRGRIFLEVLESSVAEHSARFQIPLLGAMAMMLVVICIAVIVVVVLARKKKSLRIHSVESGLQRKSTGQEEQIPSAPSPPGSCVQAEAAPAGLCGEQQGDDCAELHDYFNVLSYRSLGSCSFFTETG
T6 sequence (chain, as listed by the source limits assumed): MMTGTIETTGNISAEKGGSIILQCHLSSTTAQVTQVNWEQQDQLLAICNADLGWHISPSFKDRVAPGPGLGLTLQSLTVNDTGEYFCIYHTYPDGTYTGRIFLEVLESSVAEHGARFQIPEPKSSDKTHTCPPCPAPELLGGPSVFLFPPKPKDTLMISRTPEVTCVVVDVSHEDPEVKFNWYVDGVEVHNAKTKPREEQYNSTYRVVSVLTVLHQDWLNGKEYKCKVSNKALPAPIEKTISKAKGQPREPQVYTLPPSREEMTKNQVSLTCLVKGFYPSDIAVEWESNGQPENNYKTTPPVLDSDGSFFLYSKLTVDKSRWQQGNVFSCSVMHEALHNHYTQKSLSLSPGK
T9 sequence (chain, as listed by the source limits assumed): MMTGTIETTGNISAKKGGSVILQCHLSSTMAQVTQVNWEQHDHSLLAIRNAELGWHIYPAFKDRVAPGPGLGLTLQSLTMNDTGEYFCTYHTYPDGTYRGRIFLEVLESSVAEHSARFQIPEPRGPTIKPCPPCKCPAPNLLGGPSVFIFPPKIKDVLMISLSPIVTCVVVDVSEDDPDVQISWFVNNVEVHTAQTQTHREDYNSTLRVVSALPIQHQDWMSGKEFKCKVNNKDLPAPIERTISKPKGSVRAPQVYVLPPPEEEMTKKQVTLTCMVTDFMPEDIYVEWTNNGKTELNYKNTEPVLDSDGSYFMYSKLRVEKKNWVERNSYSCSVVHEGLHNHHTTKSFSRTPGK

B2: TIGIT-070-H2L1 (antibody, V domains shown)
VH: EVQLVQSGAEVKKPGASVKVSCKASGYTFTNYYMHWVRQAPGQRLEWMGRIDPDSGGSKYNEKFKSRVTITVDKLSSTAYMELSSLRSEDTAVYYCAREGHYGFYSDYWGQGTTVTVSS
VL: DIQMTQSPSSLSASVGDRVTITCRVSENIYSYLAWYQQKPGKSPKLLIYNAKTLAEGVPSRFSGSGSGTDFTLTISSLQPEDFATYYCQHHYGNPLTFGPGTKVDIK
notes: Humanized anti-TIGIT antibody
Kd [7]: 0.0808 nM
koff [7]: 0.000134 s⁻¹
kon [7]: 1.66e+06 M⁻¹ s⁻¹
IC50 [8]: 0.393 nM
EC50 [9]: 0.0129 nM
EC50 [10]: 0.0236 nM
EC50 [11]: 0.0124 nM
Fold change vs chimeric antibodies (KD) [12]: 0.82 fold
EC50 [13]: 0.0799 nM

B3: TIGIT-070-H1L2 (antibody, V domains shown)
VH: B2 VH with L75S, S76A
VL: B2 VL with I48V
notes: Humanized anti-TIGIT antibody
Kd [7]: 0.0883 nM
koff [7]: 0.000148 s⁻¹
kon [7]: 1.67e+06 M⁻¹ s⁻¹
IC50 [8]: 0.421 nM
EC50 [9]: 0.0118 nM
EC50 [10]: 0.0272 nM
EC50 [11]: 0.0116 nM
Fold change vs chimeric antibodies (KD) [12]: 0.9 fold
EC50 [13]: 0.0879 nM

B4: PVRIG-A43 (Fc fusion)
chain: QVQLVESGGGLVQSGGSLRLSCAASGRTRSMYVMGWFRQAPGKEREFVGRIKWSGDTTYTSYADFVKGRFTLYGNQARNTVYLQMNSLKVEDTAVYYCAGRVVPLPSRQRDRYDYWGQGTQVTVSS
notes: Alpaca VHH joined to human IgG1 Fc (VHH-hinge-CH2-CH3); not shown: human IgG1 hinge-CH2-CH3
EC50 [1]: 0.036 nM
EC50 [2]: 0.0537 nM
% AUC to COM701-hIgG1 [3]: 165%
% AUC to COM701-hIgG1 [4]: 19.6%
% AUC to SRF813-hIgG1 [5]: 181%
% AUC to SRF813-hIgG1 [6]: 25.7%

More lines, now with the values ahead:

EC50 [1]: 0.0353 nM
EC50 [2]: 0.0659 nM
% AUC to COM701-hIgG1 [3]: 18.1%
% AUC to COM701-hIgG1 [4]: 18.4%
% AUC to SRF813-hIgG1 [5]: 23.9%
% AUC to SRF813-hIgG1 [6]: 23.9%
B1: PVRIG-A104 (Fc fusion)
chain: EVQVVESGGGLVQAGGSLRLSCAASGRTRSMYVMGWFRQAPGKEREFVGRIKWSGDTTYTSYADFVKGRFTLYGNQARNTVYLQMNSLKPEDTAVYYCYRRSWTNTKLYWGKGIQVTVSS
notes: as for B4

EC50 [1]: 0.0288 nM
EC50 [2]: 0.0543 nM
% AUC to COM701-hIgG1 [3]: 122%
% AUC to COM701-hIgG1 [4]: 19.3%
% AUC to SRF813-hIgG1 [5]: 134%
% AUC to SRF813-hIgG1 [6]: 25.3%
B5: PVRIG-A35 (Fc fusion)
chain: EVQVVESGGGLVQSGGSLRLSCAASGRTRSMYVMGWFRQAPGKEREFVGRIKWSGDTTYTSYADFVKGRFTLYGNQARNTVYLQMNSLKPEDTAVYYCNGRSRFNVINAWGTGTLVTVAS
notes: as for B4
